Assay results published in patent US8357523B2, “Beta-glucosidase variant enzymes and related polynucleotides” (Codexis, Inc., priority 2009, dated 2013).
Positions count from the first letter of the chain named.

Assay: High throughput cellobiose assay: fold improvement in cellobiase activity of CelA variants over a control enzyme (Tables 2A-2D, 3, 5, 6, 7)
Type: biochemical
Settings: 3.3 g/l cellobiose; for Fold improvement over wildtype CelA: 50° C. and pH 6.5, compared to native CelA (SEQ ID NO: 4); for Fold improvement over Control Variant No. 5 from Table 2A: 55° C. and pH 6.0

B1: 41 (protein)
chain: STAIAQEGAAPAAILHPEKWPRPATQRLIDPAVEKRVDALLKQLSVEEKVGQVIQGDIGTITPEDLRKYPLGSILAGGNSGPNGDDRAPPKEWLDLADAFYRVSLEKRPGHTPIPVLFGIDAVHGHGNIGSATIFPHNIALGATHDPELLRRIGEVTAVEMAATGIDWTFAPALSVVRDDRWGRTYEGFSEDPEIVAAYSAAIVEGVQGKFGSKDFMAPGRIVACAKHFLADGGTDQGRDQGDARISEDELIRIHNAGYPPAIDAGVLTVMASFSSWQGIKHHGHKQLLTDVLKGQMGFNGFIVGDWNAHDQVPGCTKFNCPTSLIAGLDMYMAADSWKQLYENTLAQVKDGTIPMARLDDAVRRILRVKVLAGLFEKPAPKDRPGLPGLETLGSPEHRAVGREAVRKSLVLLKNDKGTLPLSPKARVLVAGDGADNIGKQSGGWTISWQGTGNRNDEFPGATSILGGIRDAVADAGGSVEFDVAGQYKTKPDVAIVVFGEEPYAEFQGDVETLEYQPDQKQDLALLKKLKDQGIPVVAVFLSGRPMWVNPELNASDAFVAAWLPGTEGGGVADVLFTDKAGKVQHDFAGKLSYSWPRTAAQTTVNRGDADYNPLFAYGYGLTYKDKSKVGTLPEESGVPAEARQNAGIYFRAGALRLPGRFL
Fold improvement over wildtype CelA: ++ (++ = 2.1 to 2.6 fold improvement over native CelA (SEQ ID NO: 4))

B2: 61 (protein)
chain: B1 chain with E155A, C225S
Fold improvement over wildtype CelA: + (+ = 1.1 to 2.0 fold improvement over native CelA (SEQ ID NO: 4))

B3: 73b (protein)
chain: B1 chain with A202S, C225S
Fold improvement over wildtype CelA: + (+ = 1.1 to 2.0 fold improvement over native CelA (SEQ ID NO: 4))

B4: 67 (protein)
chain: B1 chain with P219C, C225S
Fold improvement over wildtype CelA: + (+ = 1.1 to 2.0 fold improvement over native CelA (SEQ ID NO: 4))

B5: 51 (protein)
chain: B1 chain with C225S, D519G
Fold improvement over wildtype CelA: + (+ = 1.1 to 2.0 fold improvement over native CelA (SEQ ID NO: 4))

B6: 68 (protein)
chain: B1 chain with P219I, C225S
Fold improvement over wildtype CelA: + (+ = 1.1 to 2.0 fold improvement over native CelA (SEQ ID NO: 4))

B7: 71 (protein)
chain: B1 chain with A202L, C225S
Fold improvement over wildtype CelA: + (+ = 1.1 to 2.0 fold improvement over native CelA (SEQ ID NO: 4))

B8: 56 (protein)
chain: B1 chain with C225F
Fold improvement over wildtype CelA: + (+ = 1.1 to 2.0 fold improvement over native CelA (SEQ ID NO: 4))

B9: 45 (protein)
chain: B1 chain with C225S, Q487N
Fold improvement over wildtype CelA: + (+ = 1.1 to 2.0 fold improvement over native CelA (SEQ ID NO: 4))

B10: 44 (protein)
chain: B1 chain with C225S, F482Y
Fold improvement over wildtype CelA: + (+ = 1.1 to 2.0 fold improvement over native CelA (SEQ ID NO: 4))

B11: 55 (protein)
chain: B1 chain with C225T
Fold improvement over wildtype CelA: + (+ = 1.1 to 2.0 fold improvement over native CelA (SEQ ID NO: 4))

B12: 57 (protein)
chain: B1 chain with I222C, C225S
Fold improvement over wildtype CelA: + (+ = 1.1 to 2.0 fold improvement over native CelA (SEQ ID NO: 4))

B13: 70 (protein)
chain: B1 chain with P219L, C225S
Fold improvement over wildtype CelA: + (+ = 1.1 to 2.0 fold improvement over native CelA (SEQ ID NO: 4))

B14: 69 (protein)
chain: B1 chain with P219T, C225S
Fold improvement over wildtype CelA: + (+ = 1.1 to 2.0 fold improvement over native CelA (SEQ ID NO: 4))

B15: 47 (protein)
chain: B1 chain with C225S, D475K
Fold improvement over wildtype CelA: + (+ = 1.1 to 2.0 fold improvement over native CelA (SEQ ID NO: 4))

B16: 50 (protein)
chain: B1 chain with C225S, K629C
Fold improvement over wildtype CelA: + (+ = 1.1 to 2.0 fold improvement over native CelA (SEQ ID NO: 4))

B17: 139 (protein)
chain: B1 chain with A143M, H145R, A162T, F211Y
Fold improvement over Control Variant No. 5 from Table 2A: +++ (+++ = 6 to 13 fold improvement over control Variant No. 2)

B18: 60 (protein)
chain: B1 chain with E155K, C225S
Fold improvement over wildtype CelA: + (+ = 1.1 to 2.0 fold improvement over native CelA (SEQ ID NO: 4))

B19: 52 (protein)
chain: B1 chain with L141I, C225S
Fold improvement over wildtype CelA: + (+ = 1.1 to 2.0 fold improvement over native CelA (SEQ ID NO: 4))

B20: 73a (protein)
chain: B1 chain with T60Y, C225S
Fold improvement over wildtype CelA: + (+ = 1.1 to 2.0 fold improvement over native CelA (SEQ ID NO: 4))

B21: 63 (protein)
chain: B1 chain with R151W, C225S
Fold improvement over wildtype CelA: + (+ = 1.1 to 2.0 fold improvement over native CelA (SEQ ID NO: 4))

B22: 138 (protein)
chain: B1 chain with N79D, N128K, H145R, D146S, V159E, F211Y, I222S
Fold improvement over Control Variant No. 5 from Table 2A: +++ (+++ = 6 to 13 fold improvement over control Variant No. 2)

B23: 73 (protein)
chain: B1 chain with I222V, C225S
Fold improvement over wildtype CelA: + (+ = 1.1 to 2.0 fold improvement over native CelA (SEQ ID NO: 4))

B24: 49 (protein)
chain: B1 chain with C225S, Q487D
Fold improvement over wildtype CelA: + (+ = 1.1 to 2.0 fold improvement over native CelA (SEQ ID NO: 4))

B25: 65 (protein)
chain: B1 chain with P219Q, C225S
Fold improvement over wildtype CelA: + (+ = 1.1 to 2.0 fold improvement over native CelA (SEQ ID NO: 4))

B26: 53 (protein)
chain: B1 chain with I153T, C225S
Fold improvement over wildtype CelA: + (+ = 1.1 to 2.0 fold improvement over native CelA (SEQ ID NO: 4))

B27: 62 (protein)
chain: B1 chain with E155W, C225S
Fold improvement over wildtype CelA: + (+ = 1.1 to 2.0 fold improvement over native CelA (SEQ ID NO: 4))

B28: 136 (protein)
chain: B1 chain with N128K, A143M, H145R, V159Q, A198S, F211Y, I222A, M297I, Q487R
Fold improvement over Control Variant No. 5 from Table 2A: ++ (++ = 1.1 to 6 fold improvement over control Variant No. 2)

B29: 42 (protein)
chain: B1 chain with I222A, C225S
Fold improvement over wildtype CelA: + (+ = 1.1 to 2.0 fold improvement over native CelA (SEQ ID NO: 4))

B30: 134 (protein)
chain: B1 chain with N128K, A143M, H145R, V159E, A173C, A201P, F211Y, P219V, C225S
Fold improvement over Control Variant No. 5 from Table 2A: ++ (++ = 1.1 to 6 fold improvement over control Variant No. 2)

B31: 72 (protein)
chain: B1 chain with V46F, I222A, C225S
Fold improvement over wildtype CelA: + (+ = 1.1 to 2.0 fold improvement over native CelA (SEQ ID NO: 4))

B32: 59 (protein)
chain: B1 chain with E155Q, C225S
Fold improvement over wildtype CelA: + (+ = 1.1 to 2.0 fold improvement over native CelA (SEQ ID NO: 4))

B33: 64 (protein)
chain: B1 chain with A162V, C225S
Fold improvement over wildtype CelA: + (+ = 1.1 to 2.0 fold improvement over native CelA (SEQ ID NO: 4))

B34: 58 (protein)
chain: B1 chain with E155M, C225S
Fold improvement over wildtype CelA: + (+ = 1.1 to 2.0 fold improvement over native CelA (SEQ ID NO: 4))

B35: 66 (protein)
chain: B1 chain with P219E, C225S
Fold improvement over wildtype CelA: + (+ = 1.1 to 2.0 fold improvement over native CelA (SEQ ID NO: 4))

B36: 140 (protein)
chain: B1 chain with N79D, A143M, H145R, V159Q, A201P, F211Y, P219V
Fold improvement over Control Variant No. 5 from Table 2A: +++ (+++ = 6 to 13 fold improvement over control Variant No. 2)

B37: 54 (protein)
chain: B1 chain with C225S, L663Q
Fold improvement over wildtype CelA: + (+ = 1.1 to 2.0 fold improvement over native CelA (SEQ ID NO: 4))

B38: 46 (protein)
chain: B1 chain with C225S, L387R
Fold improvement over wildtype CelA: + (+ = 1.1 to 2.0 fold improvement over native CelA (SEQ ID NO: 4))

B39: 43 (protein)
chain: B1 chain with C225S, G467Q
Fold improvement over wildtype CelA: + (+ = 1.1 to 2.0 fold improvement over native CelA (SEQ ID NO: 4))

B40: 48 (protein)
chain: B1 chain with N79D, C225S
Fold improvement over wildtype CelA: ++ (++ = 2.1 to 2.6 fold improvement over native CelA (SEQ ID NO: 4))
